In the supplement of paper PMC12764529:
± gives the half width of the 95% confidence interval.

Experiments:
[1] = folding stability dG unfold (combined trypsin and chymotrypsin); higher = more stable
How it was run: (§1)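 Unfolding free energy was derived, per protease or combined, against a sequence-predicted unfolded-state K50 and a shared folded-state K50, starting from K50 inferred by Bayesian fitting of sequencing counts. Digestion with trypsin and chymotrypsin was carried out on designed mini-proteins under 80 residues without cysteine in a PA-tagged cDNA display construct. Only designs with AlphaFold2 dimer inter-PAE above 15 were kept.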

[2] = folding stability dG unfold from chymotrypsin proteolysis; higher = more stable
How it was run: as §1

[3] = folding stability dG unfold from trypsin proteolysis; higher = more stable
How it was run: as §1

Sequence | folding stability dG unfold [1] [kcal/mol] | folding stability dG unfold [2] [kcal/mol] | folding stability dG unfold [3] [kcal/mol]
SAVTLLSTEFVPEEGVVRLLFERPAPPDTTTFTFSVSVNGYPIESISLSVDPATNTATATATAKVPPGLSAG [r14_244_JUSTAS] | 3.2 ± 0.22 | 4.1 ± 0.11 | 2.42 ± 0.16
SAMEINIVLVAPPESPEALELAKEVAELVAKEIEEEGIPVEVEVEKIEFFRLPDGSIVVLIPIKVKPPESAG [r14_48_TrMRF] | 2.63 ± 0.19 | 3.27 ± 0.074 | 1.89 ± 0.1
SAGGSAGGSAGGENNWMIFIEIKIEWEIKPTPDGKWKWEPEIEIKSIRIMPPNSPAAKDLSAGGSAGGSAGG [r7_889_TrROS] | 2.6 ± 0.24 | 2.51 ± 0.1 | 2.95 ± 0.18
SAGGSAGGSGVSSVRPVALPGGRVLVLEYFSSTGKVRVTTLTVGDGRPARAESVTPVTPESILSAGGSAGGS [r12_961_JUSTAS] | 0.495 ± 0.09 | 0.275 ± 0.098 | 0.598 ± 0.052
SAGGSAGGSAMITTPKGERFEVPLRLTPDGRLEVLVVTDRPDDPEVRELAERLARELAERLSAGGSAGGSAG [r3_163_TrMRF] | 0.484 ± 0.14 | 0.394 ± 0.17 | 0.506 ± 0.11
SAGMPSVTVTPVTVTVEGTAPPDLTEEELRADPTYTRTVEIDATVTLYPETGTVTVTLPGGVTVTLPSPSAG [r5_701_JUSTAS] | 0.79 ± 0.095 | 0.929 ± 0.031 | 0.432 ± 0.075
SAGKSIKILITTEKEEEAKKLAEEIKKELPKLGYKVEVYIMPKEEFEKFLKEFVVPEPDGKLVKVDLSSAGG [r19_187_TrMRF] | 1.48 ± 0.19 | 2.09 ± 0.1 | 0.482 ± 0.056
SAGGWYIRIKEIERNNDGVNIDIQIPDPDDPEFFENIAENLAQKLGMPKENIKIRIEPTPMPPDPEEPSAGG [r13_430_TrROS] | 0.247 ± 0.23 | 0.0789 ± 0.35 | 0.248 ± 0.13
SAGMPDVPPVPRTFRLEIEIEVPAEDPELARELAEEIREEIRRLGAVRTEVEIDPEPGRVRVRVEFVEGSAG [r5_512_TrMRF] | 1.48 ± 0.043 | 1.56 ± 0.051 | 1.36 ± 0.018
SAGGSAGGAANIPADQTLEFPTPDGYRRRLTYYPDEGLLVAEYVNPADGTPTFYTFDIPPDSTLSAGGSAGG [r6_406_TrMRF] | 1.21 ± 0.057 | 1.43 ± 0.084 | 0.864 ± 0.048
SAGGSAGGSAGGGMSSAPPVTITPVSETTERLPNGTLVRTTTYAVDDGSTVTTTTVTPVSSAGGSAGGSAGG [r7_948_JUSTAS] | 0.602 ± 0.1 | 0.952 ± 0.069 | -0.127 ± 0.099
SAGMKVTTKTYTLTLTLPDGTRELKVTFTTPPDGYTATITDPNSSKVITLPFSSEEEARSAIEAIAARLSAG [r5_480_JUSTAS] | 2.62 ± 0.092 | 2.7 ± 0.06 | 2.48 ± 0.036
SAGGSAGGPEYQMIPVKNVEIDEFDPNDGNVTIKFKGNGQEIKLPPDGIQSIEISPDQGWIYIRSAGGSAGG [r6_315_TrROS] | -0.273 ± 0.12 | -0.365 ± 0.22 | -0.318 ± 0.093
SAGGSAGGAVDPALVSEETTSTSYYPDGTVVTTTTLKVPGKGTTVTLTTVTPLPPSSPSPSASLSAGGSAGG [r6_758_JUSTAS] | 0.761 ± 0.23 | 0.437 ± 0.077 | 1.13 ± 0.043
SAGGSAGGSAGAPPGSTVTVTYTVTTTVTDRVPDGPGFTNPHTLTSTVTTTVNVGHPDLVSAGGSAGGSAGG [r11_734_TrMRF] | 0.585 ± 0.12 | 0.00274 ± 0.17 | 0.833 ± 0.058
SMKIKIYVAPPGYVVVRITGPNGFYIPIPAKDPDEAKAKLEELINNLQERNGHKPDIDVVPFPPGQEIGDSA [r9_786_TrROS] | 1.93 ± 0.15 | 2.22 ± 0.1 | 1.39 ± 0.044

Sequence | folding stability dG unfold [1] [kcal/mol] | folding stability dG unfold [2] [kcal/mol] | folding stability dG unfold [3] [kcal/mol]
SAGGSAGGSKKIKITVVVPKEEAEKLLKELEKAGYKIVSVEKKEIPENELVVIEIVIEKPEELSAGGSAGGS [r12_445_TrROS_Hall] | 3.65 ± 0.31 | 4.13 ± 0.24 | 3.09 ± 0.14
SAGGSAGGSAGEFEIIIPPGVAEERPELLEEIRDRFKPLGLEVEVEYIPGEGYVRVKVKGSAGGSAGGSAGG [r11_357_TrMRF] | 1.55 ± 0.11 | 1.64 ± 0.036 | 1.36 ± 0.061
SAGGSAGGSKIPPGEPVTLPIFFIIWDPENGRPYAMRMEITFDAPDGNITKMNEEVIPPGQPFSAGGSAGGS [r12_868_TrROS] | 1.54 ± 0.14 | 1.49 ± 0.17 | 1.5 ± 0.056
SAGGSAGGSAGGPILKITLELSPEEIEELAKALGLKVKKVEKEKNKDGKLRVTIYIELKSAGGSAGGSAGGS [r10_999_TrROS_Hall] | 2.81 ± 0.078 | 3.24 ± 0.057 | 2.12 ± 0.085
SMPLPFEATVTVPVRDEETGETYTVTVKVEAVNPAVPRPLPDGSIEYEPIPLETVLEIVEKAAEELAKALSA [r9_698_TrMRF] | 1.56 ± 0.14 | 1.55 ± 0.058 | 1.27 ± 0.074
SAGGDDKWKIEIDIQPHDDYWVITARIRDPNGKERERMFMMPPDNIKKILNELPPEIEDIEVHRVPNSAGGS [r16_298_TrROS] | 2.53 ± 0.17 | 2.72 ± 0.045 | 2.11 ± 0.074
SAGGSFEFKAEVFYDKEKDIYYVKIPYILKNTGKIIPIVKKVKAGDPIPVEKLAEKIAKELEELGISAGGSA [r2_221_TrMRF] | 1.36 ± 0.1 | 1.89 ± 0.066 | 0.357 ± 0.079
SAGGMELEKAIEFAKETGKEVEIEIEVEDENGKPFVIRVRVKVKPDPEDPNKYKIEVEVEVFPKEELSAGGS [r16_323_TrMRF] | 4.08 ± 0.12 | 4.38 ± 0.13 | 3.61 ± 0.19
SAGGSAGGSAGGDEVLVFETETVELEVEVRTLNEDGEETTEKEKVTLTVTRVVRLPPGLLSAGGSAGGSAGG [r7_926_TrROS_Hall] | 0.959 ± 0.44 | 1.15 ± 0.24 | 0.827 ± 0.083
SAGGSAGGSAGGSKTLTPEEIKKLLDEAKKKGYKTVKITVKNKNGKTYTFTIKIPKEDLSAGGSAGGSAGGS [r4_342_TrROS_Hall] | 2.95 ± 0.23 | 3.13 ± 0.079 | 2.76 ± 0.18
SAGGETVTITIKVKGKEITVTFNKDTGKVTITDKDTGKTVTITLPAGEEPTLEELLEALKKLGFEIEPSAGG [r13_687_TrROS_Hall] | 4.32 ± 0.099 | 4.18 ± 0.095 | 4.11 ± 0.18
SAGGSAGGEIRERLRELIEQLPEEELVVRIRRNGEEVELTFRTREDLEAALEANPEAEIEIVRRSAGGSAGG [r6_421_TrROS_Hall] | 3 ± 0.058 | 3.35 ± 0.037 | 2.02 ± 0.023
SAGGSERTIMIPVEPGMSPEQIADEIKAILRELGPGRPIEIDDVHPGGWVKIKINNKPIKIHIMWPSAGGSA [r2_102_TrROS] | 1.32 ± 0.1 | 1.3 ± 0.081 | 1.31 ± 0.038
SMKITEIEPDGDGTLEIEIPVEAPPGMDPDEVQIYVMSDDGIRHVRITPNGTVEITIENIPDIRIYIFVHSA [r9_722_TrROS] | 2.26 ± 0.079 | 2.47 ± 0.073 | 1.79 ± 0.051
SAGGSAGGSAGKKTVVIKDAEIVEVEEENGYLKVRIKVTNPDGSEEEFTFTFKPGDVIELSAGGSAGGSAGG [r11_211_TrROS_Hall] | 2.71 ± 0.17 | 3.11 ± 0.059 | 2.01 ± 0.07
